Patent publication US20200024330A1

What was measured:
Experiment in all cases: cell-based or functional assay
[1] = target: HIV-1 92BR020 envelope glycoprotein (Env) on pseudovirus (HIV-1)
[2] = target: HIV-1 92RW020 envelope glycoprotein (Env) on pseudovirus (HIV-1)
[3] = target: HIV-1 92TH021 envelope glycoprotein (Env) on pseudovirus (HIV-1)
[4] = target: HIV-1 92UG024 envelope glycoprotein (Env) on pseudovirus (HIV-1)
[5] = target: HIV-1 Env of isolate CMU02 (HIV-1)
[6] = target: HIV-1 Env of isolate JRFL (HIV-1)
[7] = target: HIV-1 Env of isolate MGRM-AE-004 (HIV-1)
[8] = target: HIV-1 Env of isolate MGRM-AE-005 (HIV-1)
[9] = target: HIV-1 Env of isolate MGRM-AE-006 (HIV-1)
[10] = target: HIV-1 Env of isolate MGRM-AE-007 (HIV-1)
[11] = target: HIV-1 Env of isolate MGRM-AE-008 (HIV-1)
[12] = target: HIV-1 Env of isolate MGRM-AG-001 (HIV-1)
[13] = target: HIV-1 Env of isolate MGRM-AG-002 (HIV-1)
[14] = target: HIV-1 Env of isolate MGRM-AG-003 (HIV-1)
[15] = target: HIV-1 Env of isolate MGRM-AG-005 (HIV-1)
[16] = target: HIV-1 Env of isolate MGRM-AG-006 (HIV-1)
[17] = target: HIV-1 Env of isolate MGRM-AG-008 (HIV-1)
[18] = target: HIV-1 Env of isolate MGRM-AG-009 (HIV-1)
[19] = target: HIV-1 Env of isolate MGRM-AG-011 (HIV-1)
[20] = target: HIV-1 Env of isolate MGRM-AG-012 (HIV-1)
[21] = target: HIV-1 Env of isolate MGRM-AG-013 (HIV-1)
[22] = target: HIV-1 Env of isolate MGRM-Chronic-B-010 (HIV-1)
[23] = target: HIV-1 Env of isolate MGRM-Chronic-B-011 (HIV-1)
[24] = target: HIV-1 Env of isolate MGRM-Chronic-B-012 (HIV-1)
[25] = target: HIV-1 Env of isolate MGRM-Chronic-B-017 (HIV-1)
[26] = target: HIV-1 Env of isolate MGRM-Chronic-B-018 (HIV-1)
[27] = target: HIV-1 Env of isolate MGRM-Chronic-B-020 (HIV-1)
[28] = target: HIV-1 Env of isolate MGRM-Chronic-B-023 (HIV-1)
[29] = target: HIV-1 Env of isolate MGRM-Chronic-B-024 (HIV-1)
[30] = target: HIV-1 Env of isolate MGRM-G-001 (HIV-1)
[31] = target: HIV-1 Env of isolate MGRM-G-004 (HIV-1)
[32] = target: HIV-1 Env of isolate MGRM-G-006 (HIV-1)
[33] = target: HIV-1 Env of isolate MGRM-G-009 (HIV-1)
[34] = target: HIV-1 Env of pseudovirus MGRM-Chronic-B-004, clade B (HIV-1)
[35] = target: HIV-1 LAVIC_18 Env (HIV-1)
[36] = target: HIV-1 NL43 envelope glycoprotein (Env) on pseudovirus (HIV-1)
[37] = target: aMLV envelope (negative control pseudovirus)

1443_C16 (PG16) (TCN-116) (antibody), sequence (VH): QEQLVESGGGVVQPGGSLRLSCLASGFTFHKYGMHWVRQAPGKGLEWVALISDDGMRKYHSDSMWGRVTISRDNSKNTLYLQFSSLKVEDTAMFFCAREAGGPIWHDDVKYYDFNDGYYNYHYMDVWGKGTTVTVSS
1443_C16 (PG16) (TCN-116) (antibody), sequence (VL): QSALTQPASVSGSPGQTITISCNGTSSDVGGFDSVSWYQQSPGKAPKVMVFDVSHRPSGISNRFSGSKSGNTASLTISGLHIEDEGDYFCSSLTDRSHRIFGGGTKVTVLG

Row | Substance | IC90 (pseudovirus neutralization) [1] | IC90 (pseudovirus neutralization) [2] | IC90 (pseudovirus neutralization) [3] | IC90 (pseudovirus neutralization) [4] | IC50 (µg/ml), pseudovirus neutralization [5] | IC50 (µg/ml), pseudovirus neutralization [6] | IC50 (µg/ml), pseudovirus neutralization [7] | IC50 (µg/ml), pseudovirus neutralization [8] | IC50 (µg/ml), pseudovirus neutralization [9] | IC50 (µg/ml), pseudovirus neutralization [10] | IC50 (µg/ml), pseudovirus neutralization [11] | IC50 (µg/ml), pseudovirus neutralization [12] | IC50 (µg/ml), pseudovirus neutralization [13] | IC50 (µg/ml), pseudovirus neutralization [14] | IC50 (µg/ml), pseudovirus neutralization [15] | IC50 (µg/ml), pseudovirus neutralization [16] | IC50 (µg/ml), pseudovirus neutralization [17] | IC50 (µg/ml), pseudovirus neutralization [18] | IC50 (µg/ml), pseudovirus neutralization [19] | IC50 (µg/ml), pseudovirus neutralization [20] | further results
1 | 2F5 (antibody) | > 50 µg/mL | 27.7 µg/mL | 18.8 µg/mL | 34.4 µg/mL | 0.6 µg/mL | 3.54 µg/mL | 0.98 µg/mL | 0.14 µg/mL | 0.18 µg/mL | 0.07 µg/mL | > 50 µg/mL | 0.75 µg/mL | 0.54 µg/mL | 0.14 µg/mL | > 50 µg/mL | 0.85 µg/mL | 0.54 µg/mL | 24.8 µg/mL | > 50 µg/mL | 0.33 µg/mL | IC50 (µg/ml), pseudovirus neutralization [21]: 1.79 µg/mL; IC50 (µg/ml), pseudovirus neutralization [22]: 0.96 µg/mL; IC50 (µg/ml), pseudovirus neutralization [23]: 0.81 µg/mL; IC50 (µg/ml), pseudovirus neutralization [24]: 17.6 µg/mL; IC50 (µg/ml), pseudovirus neutralization [25]: > 50 µg/mL; IC50 (µg/ml), pseudovirus neutralization [26]: 10.8 µg/mL; IC50 (µg/ml), pseudovirus neutralization [27]: 0.78 µg/mL; IC50 (µg/ml), pseudovirus neutralization [28]: 0.1 µg/mL; IC50 (µg/ml), pseudovirus neutralization [29]: > 50 µg/mL; IC50 (µg/ml), pseudovirus neutralization [30]: 4.1 µg/mL; IC50 (µg/ml), pseudovirus neutralization [31]: > 50 µg/mL; IC50 (µg/ml), pseudovirus neutralization [32]: 1.33 µg/mL; IC50 (µg/ml), pseudovirus neutralization [33]: 7.21 µg/mL; IC50 (µg/ml), pseudovirus neutralization [34]: 2.41 µg/mL; IC50 [35]: > 50 µg/mL; IC90 (pseudovirus neutralization) [36]: 19.3 µg/mL; IC50 (µg/ml), pseudovirus neutralization [37]: > 50 µg/mL
2 | 2G12 (antibody) | 24.1 µg/mL | 6.23 µg/mL | > 50 µg/mL | 7.57 µg/mL | > 50 µg/mL | 1.45 µg/mL | > 50 µg/mL | > 50 µg/mL | > 50 µg/mL | > 50 µg/mL | > 50 µg/mL | 0.69 µg/mL | 0.54 µg/mL | > 50 µg/mL | > 50 µg/mL | 3.92 µg/mL | > 50 µg/mL | > 50 µg/mL | > 50 µg/mL | 1.94 µg/mL | IC50 (µg/ml), pseudovirus neutralization [21]: 0.95 µg/mL; IC50 (µg/ml), pseudovirus neutralization [22]: 1.5 µg/mL; IC50 (µg/ml), pseudovirus neutralization [23]: > 50 µg/mL; IC50 (µg/ml), pseudovirus neutralization [24]: 0.22 µg/mL; IC50 (µg/ml), pseudovirus neutralization [25]: > 50 µg/mL; IC50 (µg/ml), pseudovirus neutralization [26]: > 50 µg/mL; IC50 (µg/ml), pseudovirus neutralization [27]: 0.2 µg/mL; IC50 (µg/ml), pseudovirus neutralization [28]: 0.16 µg/mL; IC50 (µg/ml), pseudovirus neutralization [29]: > 50 µg/mL; IC50 (µg/ml), pseudovirus neutralization [30]: > 50 µg/mL; IC50 (µg/ml), pseudovirus neutralization [31]: > 50 µg/mL; IC50 (µg/ml), pseudovirus neutralization [32]: > 50 µg/mL; IC50 (µg/ml), pseudovirus neutralization [33]: > 50 µg/mL; IC50 (µg/ml), pseudovirus neutralization [34]: 8.65 µg/mL; IC50 [35]: > 50 µg/mL; IC90 (pseudovirus neutralization) [36]: 15.8 µg/mL; IC50 (µg/ml), pseudovirus neutralization [37]: > 50 µg/mL
3 | 1443_C16 (PG16) (TCN-116) (antibody) | > 50 µg/mL | > 50 µg/mL | 23.4 µg/mL | > 50 µg/mL | 43.6 µg/mL | > 50 µg/mL | 0.002 µg/mL | 0.02 µg/mL | 0.03 µg/mL | 0.04 µg/mL | 3.25 µg/mL | 0.03 µg/mL | 0.03 µg/mL | > 50 µg/mL | > 50 µg/mL | > 50 µg/mL | 0.002 µg/mL | > 50 µg/mL | 0.002 µg/mL | 25.1 µg/mL | IC50 (µg/ml), pseudovirus neutralization [21]: 0.31 µg/mL; IC50 (µg/ml), pseudovirus neutralization [22]: 0.01 µg/mL; IC50 (µg/ml), pseudovirus neutralization [23]: > 50 µg/mL; IC50 (µg/ml), pseudovirus neutralization [24]: 3.74 µg/mL; IC50 (µg/ml), pseudovirus neutralization [25]: 0.02 µg/mL; IC50 (µg/ml), pseudovirus neutralization [26]: 0.7 µg/mL; IC50 (µg/ml), pseudovirus neutralization [27]: > 50 µg/mL; IC50 (µg/ml), pseudovirus neutralization [28]: 0.13 µg/mL; IC50 (µg/ml), pseudovirus neutralization [29]: 0.01 µg/mL; IC50 (µg/ml), pseudovirus neutralization [30]: 0.15 µg/mL; IC50 (µg/ml), pseudovirus neutralization [31]: > 50 µg/mL; IC50 (µg/ml), pseudovirus neutralization [32]: 2.42 µg/mL; IC50 (µg/ml), pseudovirus neutralization [33]: > 50 µg/mL; IC50 (µg/ml), pseudovirus neutralization [34]: 0.01 µg/mL; IC50 [35]: 0.02 µg/mL; IC90 (pseudovirus neutralization) [36]: > 50 µg/mL; IC50 (µg/ml), pseudovirus neutralization [37]: > 50 µg/mL
4 | 4E10 (antibody) | > 50 µg/mL | 36.1 µg/mL | 23.5 µg/mL | 23.7 µg/mL | 0.72 µg/mL | 18.9 µg/mL | 1.27 µg/mL | 0.47 µg/mL | 0.23 µg/mL | 0.45 µg/mL | 0.94 µg/mL | 1.12 µg/mL | 0.8 µg/mL | 0.64 µg/mL | 2.13 µg/mL | 1.76 µg/mL | 1.48 µg/mL | 31.4 µg/mL | 1.36 µg/mL | 0.86 µg/mL | IC50 (µg/ml), pseudovirus neutralization [21]: 2.61 µg/mL; IC50 (µg/ml), pseudovirus neutralization [22]: 1.69 µg/mL; IC50 (µg/ml), pseudovirus neutralization [23]: 1.07 µg/mL; IC50 (µg/ml), pseudovirus neutralization [24]: 48 µg/mL; IC50 (µg/ml), pseudovirus neutralization [25]: 2.77 µg/mL; IC50 (µg/ml), pseudovirus neutralization [26]: 23.2 µg/mL; IC50 (µg/ml), pseudovirus neutralization [27]: 2.45 µg/mL; IC50 (µg/ml), pseudovirus neutralization [28]: 27.9 µg/mL; IC50 (µg/ml), pseudovirus neutralization [29]: 9.19 µg/mL; IC50 (µg/ml), pseudovirus neutralization [30]: 2.04 µg/mL; IC50 (µg/ml), pseudovirus neutralization [31]: 1.47 µg/mL; IC50 (µg/ml), pseudovirus neutralization [32]: 1.23 µg/mL; IC50 (µg/ml), pseudovirus neutralization [33]: 1.34 µg/mL; IC50 (µg/ml), pseudovirus neutralization [34]: 3.7 µg/mL; IC50 [35]: > 50 µg/mL; IC90 (pseudovirus neutralization) [36]: 29.6 µg/mL; IC50 (µg/ml), pseudovirus neutralization [37]: > 50 µg/mL
